Test results taken from paper PMC8464078.

Legend:
[1] = molecular target: Xenopus Rif1–CTD S2058A (Xenopus); assay: pull-down
[2] = molecular target: Xenopus Rif1–CTD S2058D (Xenopus); assay: pull-down

protein phosphatase 1 (PP1), gamma catalytic subunit (from UniProt P36874 1-323) (enzyme)
PP1 bound, percent of wild type Rif1–CTD [1]: 54%
PP1 bound, percent of wild type Rif1–CTD [2]: 9%
